From article PMC9482650, “Quantitative fragmentomics allow affinity mapping of interactomes” (Nature Communications, 2022)

Columns and labels:
Experiment in all cases: holdup assay
Conditions in all cases: plain residues with an end cap or a label only (N-terminal biotin on a linker: (peg)3)
SHANK3, Q9BYB0 = molecular target: T1, SHANK3, Q9BYB0
T1 sequence (Q9BYB0 641-750, limits assumed, looked up): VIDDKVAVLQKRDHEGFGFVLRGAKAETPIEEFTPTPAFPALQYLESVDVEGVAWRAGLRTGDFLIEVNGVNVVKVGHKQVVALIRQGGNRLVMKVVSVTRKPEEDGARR

PDZRN4_2, Q6ZMN7 = molecular target: PDZRN4_2, Q6ZMN7
RIMS1, Q86UR5 = molecular target: RIMS1, Q86UR5
GIPC3, Q8TF64 = molecular target: GIPC3, Q8TF64
RGS3, P49796-9 = molecular target: RGS3, P49796-9
CARD14, Q9BXL6 = molecular target: CARD14, Q9BXL6
PDZD8, Q8NEN9 = molecular target: T2, PDZD8, Q8NEN9
T2 sequence (Q8NEN9 361-459, limits assumed, looked up): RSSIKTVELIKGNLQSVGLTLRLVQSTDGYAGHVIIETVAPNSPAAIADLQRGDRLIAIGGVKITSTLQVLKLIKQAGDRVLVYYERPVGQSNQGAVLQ

MPP5, Q8N3R9 = molecular target: T3, MPP5, Q8N3R9
T3 sequence (Q8N3R9 251-346, limits assumed, looked up): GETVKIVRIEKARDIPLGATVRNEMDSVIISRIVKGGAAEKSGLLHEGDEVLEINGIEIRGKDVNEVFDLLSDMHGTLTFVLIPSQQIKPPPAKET

NHERF1_2, O14745 = molecular target: T4, NHERF1_2, O14745
T4 sequence (O14745 149-244, limits assumed, looked up): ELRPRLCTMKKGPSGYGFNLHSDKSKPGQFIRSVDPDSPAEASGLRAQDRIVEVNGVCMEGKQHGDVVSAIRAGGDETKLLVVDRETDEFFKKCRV

DLG2_1, Q15700 = molecular target: DLG2_1, Q15700
SHANK2, Q9UPX8 = molecular target: T5, SHANK2, Q9UPX8
T5 sequence (Q9UPX8 621-730, limits assumed, looked up): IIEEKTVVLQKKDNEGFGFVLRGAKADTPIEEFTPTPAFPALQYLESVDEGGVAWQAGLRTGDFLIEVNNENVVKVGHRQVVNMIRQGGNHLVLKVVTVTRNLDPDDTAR

CNKSR3, Q6P9H4 = molecular target: CNKSR3, Q6P9H4
CNKSR1, Q969H4 = molecular target: T6, CNKSR1, Q969H4
T6 sequence (Q969H4 191-295, limits assumed, looked up): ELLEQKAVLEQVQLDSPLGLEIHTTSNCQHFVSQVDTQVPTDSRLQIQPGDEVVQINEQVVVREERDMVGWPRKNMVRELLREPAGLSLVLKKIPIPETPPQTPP

SDCBP_1, O00560 = molecular target: SDCBP_1, O00560
SIPA1L3, O60292 = molecular target: T7, SIPA1L3, O60292
T7 sequence (O60292 961-1052, limits assumed, looked up): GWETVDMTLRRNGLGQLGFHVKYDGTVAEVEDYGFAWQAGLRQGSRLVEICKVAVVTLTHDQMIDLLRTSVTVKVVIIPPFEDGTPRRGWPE

SYNPO2L, Q9H987 = molecular target: T8, SYNPO2L, Q9H987
T8 sequence (Q9H987 1-98, limits assumed, looked up): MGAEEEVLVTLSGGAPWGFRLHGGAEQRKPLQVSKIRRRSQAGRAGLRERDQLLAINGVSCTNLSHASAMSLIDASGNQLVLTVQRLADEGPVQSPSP

RIMS2, Q9UQ26 = molecular target: RIMS2, Q9UQ26
GIPC1, O14908 = molecular target: T9, GIPC1, O14908
T9 sequence (O14908 128-223, limits assumed, looked up): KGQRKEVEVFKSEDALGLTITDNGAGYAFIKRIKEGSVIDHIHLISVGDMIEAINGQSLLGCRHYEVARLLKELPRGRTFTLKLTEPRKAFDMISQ

MPDZ_2, O75970 = molecular target: T10, MPDZ_2, O75970
T10 sequence (O75970 252-347, limits assumed, looked up): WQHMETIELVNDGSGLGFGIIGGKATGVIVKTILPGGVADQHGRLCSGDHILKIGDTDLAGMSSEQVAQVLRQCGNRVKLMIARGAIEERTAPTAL

DLG5_2, Q8TDM6 = molecular target: DLG5_2, Q8TDM6
AHNAK2, Q8IVF2 = molecular target: AHNAK2, Q8IVF2
LNX1_4, Q8TBB1 = molecular target: LNX1_4, Q8TBB1
TJP1_1, Q07157 = molecular target: TJP1_1, Q07157
MAGIX, Q9H6Y5 = molecular target: MAGIX, Q9H6Y5
MPDZ_3, O75970 = molecular target: T11, MPDZ_3, O75970
T11 sequence (O75970 372-473, limits assumed, looked up): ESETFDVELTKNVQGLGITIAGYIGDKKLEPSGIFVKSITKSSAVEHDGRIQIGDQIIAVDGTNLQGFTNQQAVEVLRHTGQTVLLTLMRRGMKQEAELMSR

USH1C_1, Q9Y6N9 = molecular target: T12, USH1C_1, Q9Y6N9
T12 sequence (Q9Y6N9 82-179, limits assumed, looked up): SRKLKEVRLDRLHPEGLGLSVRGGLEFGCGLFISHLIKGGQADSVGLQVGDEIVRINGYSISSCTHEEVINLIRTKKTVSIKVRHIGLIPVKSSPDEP

Sequence of TJP1_1, Q07157 (Q07157 18-120): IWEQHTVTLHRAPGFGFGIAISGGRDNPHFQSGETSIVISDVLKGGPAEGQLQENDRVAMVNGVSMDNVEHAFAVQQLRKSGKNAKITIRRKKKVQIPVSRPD
Sequence of CARD14, Q9BXL6 (Q9BXL6 558-663): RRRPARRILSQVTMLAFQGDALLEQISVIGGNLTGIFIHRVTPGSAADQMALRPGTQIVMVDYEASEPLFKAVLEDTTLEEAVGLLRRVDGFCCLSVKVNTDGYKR
Sequence of MAGIX, Q9H6Y5 (Q9H6Y5 118-211): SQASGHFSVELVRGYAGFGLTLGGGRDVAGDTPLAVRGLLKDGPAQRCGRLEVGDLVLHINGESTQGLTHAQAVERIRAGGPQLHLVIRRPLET
Sequence of GIPC3, Q8TF64 (Q8TF64 107-202): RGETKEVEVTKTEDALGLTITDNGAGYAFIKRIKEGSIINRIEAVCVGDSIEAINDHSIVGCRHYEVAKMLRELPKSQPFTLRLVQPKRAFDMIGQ
Sequence of LNX1_4, Q8TBB1 (Q8TBB1 631-726): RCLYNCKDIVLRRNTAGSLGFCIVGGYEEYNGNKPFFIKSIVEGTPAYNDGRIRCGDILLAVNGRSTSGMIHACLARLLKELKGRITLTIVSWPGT
Sequence of CNKSR3, Q6P9H4 (Q6P9H4 203-303): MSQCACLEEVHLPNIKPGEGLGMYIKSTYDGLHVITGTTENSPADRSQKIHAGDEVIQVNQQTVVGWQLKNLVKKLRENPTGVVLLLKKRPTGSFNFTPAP
Sequence of DLG5_2, Q8TDM6 (Q8TDM6 714-800): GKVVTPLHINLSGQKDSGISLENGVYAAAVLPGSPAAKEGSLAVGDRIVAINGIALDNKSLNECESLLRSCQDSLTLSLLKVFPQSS
Sequence of RGS3, P49796-9 (P49796 other isoform, or with tags, fused parts or gaps): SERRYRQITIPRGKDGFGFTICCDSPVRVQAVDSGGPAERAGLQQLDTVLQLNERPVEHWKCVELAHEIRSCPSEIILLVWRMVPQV
Sequence of PDZRN4_2, Q6ZMN7 (Q6ZMN7 389-498): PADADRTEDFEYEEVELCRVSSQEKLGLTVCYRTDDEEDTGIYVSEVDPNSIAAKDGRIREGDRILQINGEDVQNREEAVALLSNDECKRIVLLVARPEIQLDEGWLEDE
Sequence of AHNAK2, Q8IVF2 (Q8IVF2 108-193): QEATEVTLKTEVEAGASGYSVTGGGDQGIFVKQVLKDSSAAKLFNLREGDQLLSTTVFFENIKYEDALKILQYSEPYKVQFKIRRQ
Sequence of RIMS1, Q86UR5 (Q86UR5 584-692): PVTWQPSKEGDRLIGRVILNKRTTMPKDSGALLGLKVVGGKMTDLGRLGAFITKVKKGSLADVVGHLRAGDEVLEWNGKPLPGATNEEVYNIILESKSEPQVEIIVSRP
Sequence of RIMS2, Q9UQ26 (Q9UQ26 637-758): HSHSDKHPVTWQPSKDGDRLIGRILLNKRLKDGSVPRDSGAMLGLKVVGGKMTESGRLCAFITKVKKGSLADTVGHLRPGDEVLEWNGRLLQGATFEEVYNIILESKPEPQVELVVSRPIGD
Sequence of SDCBP_1, O00560 (O00560 111-198): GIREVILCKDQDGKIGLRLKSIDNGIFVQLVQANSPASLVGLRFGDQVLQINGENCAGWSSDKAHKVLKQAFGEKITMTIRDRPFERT

With NLNSSEGVPDLLV [SARS-CoV-E, P59637] the pKd (SHANK3, Q9BYB0) was “below the threshold”, the pKd (PDZRN4_2, Q6ZMN7) was 4.05 and the pKd (RIMS1, Q86UR5) was “below the threshold”. The pKd (GIPC3, Q8TF64) was “below the threshold”, the pKd (RGS3, P49796-9) was “below the threshold” and the pKd (CARD14, Q9BXL6) was “below the threshold”. For the same binder, the pKd (PDZD8, Q8NEN9) was “below the threshold”, the pKd (MPP5, Q8N3R9) was “below the threshold” and the pKd (NHERF1_2, O14745) was 3.74. For the same binder, the pKd (DLG2_1, Q15700) was “below the threshold”, the pKd (SHANK2, Q9UPX8) was “below the threshold” and the pKd (CNKSR3, Q6P9H4) was “below the threshold”. For the same binder, the pKd (CNKSR1, Q969H4) was “below the threshold”, the pKd (SDCBP_1, O00560) was “below the threshold” and the pKd (SIPA1L3, O60292) was “below the threshold”. For the same binder, the pKd (SYNPO2L, Q9H987) was “below the threshold”, the pKd (RIMS2, Q9UQ26) was “below the threshold” and the pKd (GIPC1, O14908) was “below the threshold”. For the same binder, the pKd (MPDZ_2, O75970) was “below the threshold”, the pKd (DLG5_2, Q8TDM6) was “below the threshold” and the pKd (AHNAK2, Q8IVF2) was “below the threshold”. For the same binder, the pKd (LNX1_4, Q8TBB1) was “below the threshold”, the pKd (TJP1_1, Q07157) was “below the threshold” and the pKd (MAGIX, Q9H6Y5) was “below the threshold”. For the same binder, the pKd (MPDZ_3, O75970) was “below the threshold” and the pKd (USH1C_1, Q9Y6N9) was “below the threshold”.
